Results from article doi:10.1101/2025.08.04.668557.

Tests used:
[1] = tested on: Nsp1 full-length (6His-Nsp1) (SARS-CoV-2); test: MST; conditions: assay buffer not stated ([…]
[2] = tested on: Nsp1 N127 (6His-Nsp1(N127)) (SARS-CoV-2); test: MST; conditions: assay buffer not stated ([…]

Row | Substance | Kd [1] [µM] | Kd [2] [µM]
1 | TIAR 5' UTR 1-50 RNA | 4.23 | 112
2 | CoV2 5' UTR 1-50 RNA | 6.3 | 77.8
